From publication PMC7432810 come the findings set out here.

The target of assay [1] is Cx36-ECFP (Rattus norvegicus) (UniProt O70610). Briefly: FRET or BRET; acceptor photobleaching FRET in double transfected Neuro 2a cells fixed with 4% paraformaldehyde; ECFP donor, DsRed acceptor; threshold 1.7% (10 nm); cells untreated or treated before with 2 uM ionomycin or 24 uM BAPTA-AM (10 min), 5 ug/mL BFA (6 h) or 50 uM Dynasore (1 h).
Assay [2] addresses Cx36-DsRed (Rattus norvegicus) (UniProt O70610). The description is as above.

In assay [1], Cav-1-DsRed (natural protein) showed an FRET efficiency of 5.73; an FRET efficiency (cells treated with 2 uM ionomycin) of 7.33; an FRET efficiency (cells treated with BFA for 6 h) of 3.76; an FRET efficiency (no treatment, control of the Dynasore experiment) of 4.

Regarding Cav-1-ECFP (natural protein), the FRET efficiency in assay [2] came to 5.94.
